Read-outs that look alike come from different tables or passages of the source.

In experiment [1] the target is T1, pseudolysin (Pseudomonas aeruginosa, UniProt P14756). The note with it: Cathgart G. R. et al, 2011; cited from earlier work.
Experiment [2] deals with P. aeruginosa (DSM No. 50071). Description: Gentamycin MIC determination, microtiter broth dilution. It is filed as cell-based, Pseudomonas aeruginosa. The note with it: reference strain DSM No. 50071, partially resistant to Gentamycin. The protocol: (§1) Gentamycin MIC (minimal inhibitory concentration) values were determined using a standard two fold microtiter broth dilution protocol with Nutrient Broth as medium. Midexponential phase cultures of P. aeruginosa reference strain DSM No.: 50071 and two antibiotic-resistant clinical isolates (P. aeruginosa VB7623 and VB7444), which were isolated from the tracheal secrete of a patient, were tested. Antimicrobial susceptibility testing of the clinical isolates was performed by the University Clinic Tubingen. […] Further, the OD (optical density) at 600 nm in the presence and absence of the insect metalloprotease inhibitor IMPI was investigated. For assessing influences of IMPI on bacterial growth final concentrations of IMPI between 20 and 75 μM were used. Bacterial growth was monitored at 37° C. over 48 h. All MIC values were done as triplicates.

Experiment [3] relates to P. aeruginosa cultures VB7623. Description: growth curves (OD 600 nm) of clinical isolate. The experiment is classed as cell-based, Pseudomonas aeruginosa. The method, then:
as §1

Experiment [4] deals with human aortic smooth muscle cell (HASMC). The note with it: coating containing GM6001 compared to metallic substrate only, cited from earlier work.
Another experiment deals with HASMCs. The note with it: GM6001 released from PLGA coating compared to metallic substrate only; cited from earlier work.
Experiment [5] addresses T2, MMP2 (Homo sapiens, UniProt P08253).
T2 sequence (P08253 110-660): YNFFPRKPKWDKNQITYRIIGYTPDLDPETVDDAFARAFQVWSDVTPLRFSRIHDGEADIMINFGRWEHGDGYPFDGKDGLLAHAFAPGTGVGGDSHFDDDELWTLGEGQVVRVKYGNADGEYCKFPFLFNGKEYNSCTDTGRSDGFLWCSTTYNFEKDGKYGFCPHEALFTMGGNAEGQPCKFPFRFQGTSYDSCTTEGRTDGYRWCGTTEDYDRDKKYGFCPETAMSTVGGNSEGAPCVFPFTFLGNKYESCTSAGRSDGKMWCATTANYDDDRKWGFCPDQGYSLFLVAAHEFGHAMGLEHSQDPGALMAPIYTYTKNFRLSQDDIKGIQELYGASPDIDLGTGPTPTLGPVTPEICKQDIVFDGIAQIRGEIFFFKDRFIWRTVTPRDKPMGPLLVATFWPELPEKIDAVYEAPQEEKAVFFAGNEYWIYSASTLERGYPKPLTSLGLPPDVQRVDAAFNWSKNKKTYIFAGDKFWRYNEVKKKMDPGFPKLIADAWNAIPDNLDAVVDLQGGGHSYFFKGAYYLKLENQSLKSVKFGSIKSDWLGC
The arrangement: endogenous in cells; host or cells: human aortic smooth muscle cells (HASMC). Particulars: GM6001 releasing coating vs metal substrate; cited from earlier work.

The next experiment concerns Pseudomonas aeruginosa. The experiment is described as follows: formation of freely suspended biofilm in flocs (FIG. 4). The experiment is classed as cell-based. The note with it: incubated with IMPIα at 62.5 and 125 ng/ml Gm doses. The protocol:
FIG. 4: The formation of freely suspended biofilm in flocs is a successful strategy used by Pseudomonas aeruginosa to overcome stressfull envionmental conditions (e.g. addition of Gentamicin Gm to buffer; Panel A (62.5 ng/ml) and B (125 ng/ml)).

For experiment [6], the system named is P. aeruginosa (Clinical Isolate VB7623). Description: pyoveridine development and planktonic biofilm in 96-well plate. The experiment is classed as cell-based, Pseudomonas aeruginosa. Particulars: after 48 h. The protocol:
FIG. 9: Comparison of the development of pyoveridine (dark grey background in circular light grey structure, i.e. the plate wells) during growth of P. aeruginosa (Clinical Isolate VB7623 from tracheal secrete, assessed as 4MRGN strain [EUCAST]) in presence (lower rectangle) and absence (upper rectangle) of the M4-metalloprotease inhibitor IMPIα (73 μM; NB-Medium No. 5), and different Gentamycin concentrations (32; 8; 4; 2; 1; 0.5; 0.25; 0.125 μg/ml) in a 96-well plate after 48 h. Pyoveridine is not expressed in the concurrent presence of IMPI and Gentamycin, not even at gentamycin concentrations as low as 0.125 μg/
FIG. 15: Comparison of the development of planctonic biofilm and pyoveridine (grey colour in the wells) during growth of P. aeruginosa (clinical isolate VB7623 from tracheal secrete, assessed as 4MRGN strain [EUCAST]) in the presence (black outlined rectangle) and absence (double outlined rectangle) of the M4-metalloprotease inhibitor IMPI (60 μM; NB-Medium No. 5) in a 96-well plate after 48 h.
as §1

Another experiment deals with P. aeruginosa. Description: synthesis of siderophore pyoverdine. The experiment is classed as cell-based, Pseudomonas aeruginosa. The note with it: IMPIα together with the antibiotic gentamycin.
Another experiment deals with bacillolysin. Particulars: cited from earlier work.
A further experiment deals with T3, MMP1 (Homo sapiens, UniProt P03956).
T3 sequence (P03956 100-469): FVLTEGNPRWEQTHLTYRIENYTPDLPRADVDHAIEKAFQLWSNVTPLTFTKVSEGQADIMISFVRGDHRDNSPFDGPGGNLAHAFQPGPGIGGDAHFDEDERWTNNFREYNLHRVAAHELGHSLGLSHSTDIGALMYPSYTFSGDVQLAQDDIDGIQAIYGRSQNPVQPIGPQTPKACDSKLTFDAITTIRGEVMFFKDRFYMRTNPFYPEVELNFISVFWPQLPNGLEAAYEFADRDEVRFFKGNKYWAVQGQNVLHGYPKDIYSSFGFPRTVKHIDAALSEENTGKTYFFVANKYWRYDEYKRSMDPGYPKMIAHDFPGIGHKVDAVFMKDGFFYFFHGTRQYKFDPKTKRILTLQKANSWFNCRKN
Particulars: cited from earlier work.

Experiment [7] addresses T2, MMP2. The note with it: cited from earlier work.
The target in another experiment is thermolysin (Bacillus thermoproteolyticus, UniProt P00800). The note with it: cited from earlier work.
Sequence of thermolysin (P00800 233-548): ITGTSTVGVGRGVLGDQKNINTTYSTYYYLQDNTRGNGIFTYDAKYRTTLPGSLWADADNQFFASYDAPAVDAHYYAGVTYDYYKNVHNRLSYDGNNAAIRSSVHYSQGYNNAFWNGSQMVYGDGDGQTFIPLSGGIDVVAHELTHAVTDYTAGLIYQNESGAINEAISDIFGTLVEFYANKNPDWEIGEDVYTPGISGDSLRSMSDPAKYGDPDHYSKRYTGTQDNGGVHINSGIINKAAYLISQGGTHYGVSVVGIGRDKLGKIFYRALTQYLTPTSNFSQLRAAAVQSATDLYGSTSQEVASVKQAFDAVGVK
Experiment [8] concerns the target T1, pseudolysin. The note with it: cited from earlier work.

T1 sequence (P14756 198-498): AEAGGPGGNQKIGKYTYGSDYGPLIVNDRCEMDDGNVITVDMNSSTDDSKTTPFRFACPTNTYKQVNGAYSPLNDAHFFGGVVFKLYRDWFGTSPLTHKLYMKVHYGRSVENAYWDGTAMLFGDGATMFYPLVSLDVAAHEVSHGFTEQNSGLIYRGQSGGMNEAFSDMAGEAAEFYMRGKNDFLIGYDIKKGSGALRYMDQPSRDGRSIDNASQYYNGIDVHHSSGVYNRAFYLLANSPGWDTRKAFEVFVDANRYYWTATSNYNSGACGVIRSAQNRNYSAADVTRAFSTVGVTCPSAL

Turning to `NC(=O)C(Cc1ccc(O)cc1)NC(=O)C(Cc1ccccc1)NC(=O)CS` (stereo not drawn) [N-mercaptoacetyl-Phe-Tyr-amide], on pseudolysin [1], the inhibition constant (Ki) was 41 nM.

Turning to Gentamicin [Gentamycin], the MIC in experiment [2] was 8 mg/L. Further, the growth rate result was “enhance growth” in [3] (low concentrations of gentamycin, after 26 h in NB-medium) and “no effect” in [3] (very low concentrations of gentamycin).

For the molecule `CNC(=O)[C@H](Cc1c[nH]c2ccccc12)NC(=O)[C@@H](CC(=O)NO)CC(C)C` [GM6001], the “reduction of rate of in vitro cell growth” value in experiment [4] (after 4 days) was 30.7%; in [4] (after 7 days), 37.4%. In addition, in the experiment on HASMCs, the decrease of migration is 21.4%. The “MMP-2 activity normalized to cell number” value at MMP2 [5] was “not statistically different”.

B1: IMPIα: insect metalloproteinase inhibitor from G. mellonella, 69 amino acids; M4-metalloprotease inhibitor (protein, listed as Galleria mellonella)
chain: IVLICNGGHEYYECGGACDNVCADLHIQNKTNCPIINIRCNDKCYCEDGYARDVNGKCIPIKDCPKIRS
Take B1: in the experiment on Pseudomonas aeruginosa, the biofilm formation result was “biofilm formation is prohibited”. Also, the planctonic biofilm result in experiment [6] (IMPI 60 μM, no antibiotic) was “no plantonic biofilm can be observed”. In addition, the pyoveridine secretion result in experiment [6] (IMPI 60 μM, no antibiotic, NB-Medium No. 5) is listed as “secreted less”. For the same molecule, the pyoveridine expression result in experiment [6] (IMPIα 73 μM with Gentamycin down to 0.125 μg/ml, NB-Medium No. 5) is recorded as “not expressed”. In addition, the synthesis of pyoverdine result with P. aeruginosa is “inhibited synergistically”. The IC60 is on record as 0.86 nM in the experiment on bacillolysin, 0.62 nM with thermolysin and 81.66 nM with pseudolysin [8]. The inhibition result with MMP1 and with MMP2 [7] was “negligible inhibition” throughout.
